Data published in publication doi:10.1101/2021.09.20.461090.

Target: extended E34 TSP (E34 phage tailspike protein with the N-terminal 43 amino acid fusion peptide) (E34 phage)
Experiment: SDS-PAGE of unheated against unfolded samples

In the case of “extended E34 TSP (E34 phage tailspike protein with the N-terminal 43 amino acid fusion peptide) (natural protein)”, the stoichiometry N is reported as 3.
